Assay results reported in publication doi:10.1101/2020.08.07.241737 (bioRxiv, 2020).

Target: T1, COP1-His recombinant protein (Arabidopsis thaliana, UniProt P43254 1-675)
T1 sequence (looked up): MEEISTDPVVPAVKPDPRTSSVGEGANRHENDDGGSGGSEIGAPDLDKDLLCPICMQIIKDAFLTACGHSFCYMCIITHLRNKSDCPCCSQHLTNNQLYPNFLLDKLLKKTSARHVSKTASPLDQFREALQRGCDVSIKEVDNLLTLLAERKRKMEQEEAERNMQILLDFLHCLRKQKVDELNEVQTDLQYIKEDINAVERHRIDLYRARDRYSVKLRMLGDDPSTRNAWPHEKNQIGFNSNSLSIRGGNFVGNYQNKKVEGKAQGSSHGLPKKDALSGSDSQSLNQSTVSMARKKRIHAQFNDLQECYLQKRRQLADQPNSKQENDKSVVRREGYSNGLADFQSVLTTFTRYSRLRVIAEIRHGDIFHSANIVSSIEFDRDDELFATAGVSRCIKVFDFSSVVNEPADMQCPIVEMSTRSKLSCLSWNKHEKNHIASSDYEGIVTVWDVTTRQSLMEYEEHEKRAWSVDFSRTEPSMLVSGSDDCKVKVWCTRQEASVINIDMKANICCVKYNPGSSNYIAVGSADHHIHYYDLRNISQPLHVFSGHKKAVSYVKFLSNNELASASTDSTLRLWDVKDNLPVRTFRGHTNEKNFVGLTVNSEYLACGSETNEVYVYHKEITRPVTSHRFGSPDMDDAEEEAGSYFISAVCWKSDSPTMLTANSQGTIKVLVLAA
Assay: pull-down

B1: GST-HDA15 recombinant protein (enzyme, Arabidopsis thaliana, UniProt Q8GXJ1 1-552, looked up)
chain: MVVETIERSCEGSKRRHVNGGDIAVPCSGEECSNGDINVAPGVSAKRARVSREMTFEDIYGADALLNDDDDEDDDCDWEPVQAPMEFVKWCCVNCTMSNPGDMVHCCICGEHKESGILRHGYLASPFFKDTGLIEVEEKYGGSSSATSSTAVGFDERMLLHSEFEVKAQPHPERPDRLRAIAASLATAGVFPGRCLPINAREITKQELQMVHTSEHVDAVDTTSQLLYSYFTSDTYANEYSARAARLAAGLCADLATDIFTGRVKNGFALVRPPGHHAGVRHAMGFCLHNNAAVAALVAQAAGAKKVLIVDWDVHHGNGTQEIFEQNKSVLYISLHRHEGGNFYPGTGAADEVGSNGGEGYCVNVPWSCGGVGDKDYIFAFQHVVLPIASAFSPDFVIISAGFDAARGDPLGCCDVTPAGYSRMTQMLGDLCGGKMLVILEGGYNLRSISASATAVIKVLLGENPENELPIATTPSVAGLQTVLDVLNIQLEFWPSLAISYSKLLSELEARLIENKKNQMKRKVVRVPTWWKWGRKKLLYNFLSARMISRSK
B1: binds.
